Measurements reported in patent publication US20160264649A1.

Legend:
Experiment in all cases: cell-based or functional assay
[1] = molecular target: HIV-1 MGRM-AE-005 Env (HIV-1)
[2] = molecular target: HIV-1 MGRM-A-012 Env (HIV-1)
[3] = molecular target: HIV-1 MGRM-AG-012 Env (HIV-1)
[4] = molecular target: HIV-1 MGRM-A-005 Env (HIV-1)
[5] = molecular target: HIV-1 MGRM-A-007 Env (HIV-1)
HIV-1 CMU02 Env (HIV-1) = molecular target: HIV-1 CMU02 Env (HIV-1)
[6] = molecular target: HIV-1 MGRM-A-001 Env (HIV-1)
[7] = molecular target: HIV-1 92TH021 Env (HIV-1)
[8] = molecular target: HIV-1 MGRM-AE-008 Env (HIV-1)
[9] = molecular target: HIV-1 MGRM-A-006 Env (HIV-1)
[10] = molecular target: HIV-1 92WR024 Env (HIV-1)
[11] = molecular target: HIV-1 MGRM-A-002 Env (HIV-1)
[12] = molecular target: HIV-1 92WR026 Env (HIV-1)
[13] = molecular target: HIV-1 Env of isolate MG RM-C-024 (subtype C) (HIV-1)
[14] = molecular target: HIV-1 MGRM-AG-009 Env (HIV-1)
[15] = molecular target: HIV-1 MGRM-AG-006 Env (HIV-1)
HIV-1 VLGCA1 Env (HIV-1) = molecular target: HIV-1 VLGCA1 Env (HIV-1)
[16] = molecular target: HIV-1 MGRM-AE-003 Env (HIV-1)
[17] = molecular target: HIV-1 92RW008 Env (HIV-1)
[18] = molecular target: HIV-1 94KE105 Env (HIV-1)
[19] = molecular target: HIV-1 MGRM-AE-001 Env (HIV-1)
[20] = molecular target: HIV-1 MGRM-A-013 Env (HIV-1)
[21] = molecular target: HIV-1 MGRM-A-011 Env (HIV-1)
[22] = molecular target: HIV-1 MGRM-A-004 Env (HIV-1)
[23] = molecular target: HIV-1 MGRM-A-009 Env (HIV-1)
[24] = molecular target: HIV-1 MGRM-AG-003 Env (HIV-1)
[25] = molecular target: HIV-1 92UG031 Env (HIV-1)
[26] = molecular target: HIV-1 MGRM-A-008 Env (HIV-1)
[27] = molecular target: HIV-1 92WR020 Env (HIV-1)
[28] = molecular target: HIV-1 MGRM-AE-002 Env (HIV-1)
[29] = molecular target: HIV-1 Env of isolate MG RM-C-023 (subtype C) (HIV-1)
[30] = molecular target: HIV-1 MGRM-AG-011 Env (HIV-1)
[31] = molecular target: HIV-1 MGRM-AE-004 Env (HIV-1)
[32] = molecular target: HIV-1 Env of isolate MG RM-C-020 (subtype C) (HIV-1)
[33] = molecular target: HIV-1 92WR021 Env (HIV-1)
[34] = molecular target: HIV-1 MGRM-A-014 Env (HIV-1)
[35] = molecular target: HIV-1 MGRM-AG-008 Env (HIV-1)
[36] = molecular target: HIV-1 MGRM-AE-007 Env (HIV-1)
[37] = molecular target: HIV-1 Env of isolate MG RM-C-022 (subtype C) (HIV-1)
[38] = molecular target: HIV-1 MGRM-A-010 Env (HIV-1)
[39] = molecular target: HIV-1 Env of isolate MG RM-C-025 (subtype C) (HIV-1)
[40] = molecular target: HIV-1 93WR029 Env (HIV-1)
[41] = molecular target: HIV-1 MGRM-AE-006 Env (HIV-1)
[42] = molecular target: HIV-1 Env of isolate MG RM-C-019 (subtype C) (HIV-1)
[43] = molecular target: HIV-1 Env of isolate MG RM-C-026 (subtype C) (HIV-1)
[44] = molecular target: HIV-1 94UG103 Env (HIV-1)
[45] = molecular target: HIV-1 Env of isolate MG RM-C-027 (subtype C) (HIV-1)
[46] = molecular target: HIV-1 MGRM-A-003 Env (HIV-1)
[47] = molecular target: HIV-1 92WR009 Env (HIV-1)
[48] = molecular target: HIV-1 MGRM-AG-005 Env (HIV-1)
[49] = molecular target: HIV-1 93UG077 Env (HIV-1)
[50] = molecular target: HIV-1 92UG037 Env (HIV-1)
[51] = molecular target: HIV-1 Env of isolate MG RM-C-028 (subtype C) (HIV-1)
[52] = molecular target: HIV-1 MGRM-AG-002 Env (HIV-1)
[53] = molecular target: HIV-1 MGRM-AG-001 Env (HIV-1)
[54] = molecular target: HIV-1 MGRM-AG-013 Env (HIV-1)

5329_C19 (PGT-136) (antibody), sequence (VH): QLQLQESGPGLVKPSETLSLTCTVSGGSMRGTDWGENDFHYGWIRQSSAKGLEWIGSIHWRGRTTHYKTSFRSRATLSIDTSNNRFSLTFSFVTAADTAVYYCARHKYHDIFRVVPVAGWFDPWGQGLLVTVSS
5329_C19 (PGT-136) (antibody), sequence (VL): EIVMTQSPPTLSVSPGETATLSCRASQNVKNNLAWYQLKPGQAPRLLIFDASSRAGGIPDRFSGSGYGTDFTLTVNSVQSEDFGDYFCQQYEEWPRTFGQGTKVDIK
5345_I01 (PGT-137) (antibody), sequence (VH): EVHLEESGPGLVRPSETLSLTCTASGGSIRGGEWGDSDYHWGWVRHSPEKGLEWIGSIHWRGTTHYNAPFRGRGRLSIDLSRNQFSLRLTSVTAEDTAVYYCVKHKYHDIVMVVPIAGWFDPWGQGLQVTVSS
5345_I01 (PGT-137) (antibody), sequence (VL): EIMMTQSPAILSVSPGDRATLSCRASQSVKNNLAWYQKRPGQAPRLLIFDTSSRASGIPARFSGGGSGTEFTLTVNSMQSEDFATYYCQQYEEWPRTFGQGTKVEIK

Substance: 5345_I01 (PGT-137) (antibody)
- IC50 [1]: > 50 µg/mL
- IC50 [2]: > 50 µg/mL
- IC50 [3]: > 50 µg/mL
- IC50 [4]: > 50 µg/mL
- IC50 [5]: > 50 µg/mL
- IC50 (HIV-1 CMU02 Env (HIV-1)): > 50 µg/mL
- IC50 [6]: > 50 µg/mL
- IC50 [7]: > 50 µg/mL
- IC50 [8]: > 50 µg/mL
- IC50 [9]: > 50 µg/mL
- IC50 [10]: > 50 µg/mL
- IC50 [11]: > 50 µg/mL
- IC50 [12]: 0.092 µg/mL
- IC50 [13]: > 50 µg/mL
- IC50 [14]: > 50 µg/mL
- IC50 [15]: 28.3 µg/mL
- IC50 (HIV-1 VLGCA1 Env (HIV-1)): > 50 µg/mL
- IC50 [16]: > 50 µg/mL
- IC50 [17]: 0.148 µg/mL
- IC50 [18]: 18.5 µg/mL
- IC50 [19]: > 50 µg/mL
- IC50 [20]: 49.2 µg/mL
- IC50 [21]: > 50 µg/mL
- IC50 [22]: > 50 µg/mL
- IC50 [23]: > 50 µg/mL
- IC50 [24]: > 50 µg/mL
- IC50 [25]: > 50 µg/mL
- IC50 [26]: > 50 µg/mL
- IC50 [27]: 0.005 µg/mL
- IC50 [28]: > 50 µg/mL
- IC50 [29]: 0.23 µg/mL
- IC50 [30]: > 50 µg/mL
- IC50 [31]: > 50 µg/mL
- IC50 [32]: > 50 µg/mL
- IC50 [33]: 3.52 µg/mL
- IC50 [34]: 18.6 µg/mL
- IC50 [35]: > 50 µg/mL
- IC50 [36]: > 50 µg/mL
- IC50 [37]: > 50 µg/mL
- IC50 [38]: > 50 µg/mL
- IC50 [39]: > 50 µg/mL
- IC50 [40]: > 50 µg/mL
- IC50 [41]: > 50 µg/mL
- IC50 [42]: > 50 µg/mL
- IC50 [43]: 0.011 µg/mL
- IC50 [44]: > 50 µg/mL
- IC50 [45]: > 50 µg/mL
- IC50 [46]: > 50 µg/mL
- IC50 [47]: > 50 µg/mL
- IC50 [48]: > 50 µg/mL
- IC50 [49]: > 50 µg/mL
- IC50 [50]: > 50 µg/mL
- IC50 [51]: > 50 µg/mL
- IC50 [52]: > 50 µg/mL
- IC50 [53]: > 50 µg/mL
- IC50 [54]: > 50 µg/mL

Substance: 5329_C19 (PGT-136) (antibody)
- IC50 [1]: > 50 µg/mL
- IC50 [2]: > 50 µg/mL
- IC50 [3]: > 50 µg/mL
- IC50 [4]: > 50 µg/mL
- IC50 [5]: > 50 µg/mL
- IC50 (HIV-1 CMU02 Env (HIV-1)): > 50 µg/mL
- IC50 [6]: > 50 µg/mL
- IC50 [7]: > 50 µg/mL
- IC50 [8]: > 50 µg/mL
- IC50 [9]: > 50 µg/mL
- IC50 [10]: > 50 µg/mL
- IC50 [11]: > 50 µg/mL
- IC50 [12]: > 50 µg/mL
- IC50 [13]: > 50 µg/mL
- IC50 [14]: > 50 µg/mL
- IC50 [15]: 29.1 µg/mL
- IC50 (HIV-1 VLGCA1 Env (HIV-1)): > 50 µg/mL
- IC50 [16]: > 50 µg/mL
- IC50 [17]: > 50 µg/mL
- IC50 [18]: > 50 µg/mL
- IC50 [19]: > 50 µg/mL
- IC50 [20]: > 50 µg/mL
- IC50 [21]: > 50 µg/mL
- IC50 [22]: > 50 µg/mL
- IC50 [23]: > 50 µg/mL
- IC50 [24]: > 50 µg/mL
- IC50 [25]: > 50 µg/mL
- IC50 [26]: > 50 µg/mL
- IC50 [27]: 2.33 µg/mL
- IC50 [28]: > 50 µg/mL
- IC50 [29]: 3.2 µg/mL
- IC50 [30]: > 50 µg/mL
- IC50 [31]: > 50 µg/mL
- IC50 [32]: > 50 µg/mL
- IC50 [33]: > 50 µg/mL
- IC50 [34]: > 50 µg/mL
- IC50 [35]: > 50 µg/mL
- IC50 [36]: > 50 µg/mL
- IC50 [37]: > 50 µg/mL
- IC50 [38]: > 50 µg/mL
- IC50 [39]: > 50 µg/mL
- IC50 [40]: > 50 µg/mL
- IC50 [41]: > 50 µg/mL
- IC50 [42]: 20.1 µg/mL
- IC50 [43]: 0.006 µg/mL
- IC50 [44]: > 50 µg/mL
- IC50 [45]: > 50 µg/mL
- IC50 [46]: > 50 µg/mL
- IC50 [47]: > 50 µg/mL
- IC50 [48]: > 50 µg/mL
- IC50 [49]: > 50 µg/mL
- IC50 [50]: > 50 µg/mL
- IC50 [51]: 33.7 µg/mL
- IC50 [52]: > 50 µg/mL
- IC50 [53]: > 50 µg/mL
- IC50 [54]: > 50 µg/mL
